Substitutions are numbered along the chain they refer to. Names may count otherwise.
Experiments:
[1] = test system: NK92 cells; assay: IFN gamma secretion assay in NK92 cells (Example 10); type: cell-based, human; details: IFNγ secretion, 1 ng/ml IL-12
Experimental: The IFNγ-secretion stimulating activity of the unconjugated IL-18 variants and corresponding IL-18 immunocytokines was evaluated on NK92 cell line. The NK cell line NK-92 derived from a patient with lymphoma (ATCC, Cat #CRL-2407) was cultured in aMEM medium supplemented with 12.5% FCS, 12.5% horse serum (HS), 50 uM B-mercaptoEthanol, and 2 ng/ml of recombinant Human Interleukin-2 (IL-2).
On the day of experiment, cells were harvested and washed with aMEM medium without IL-2 and resuspended in medium (w/o IL-2) containing 1 ng/ml of recombinant human Interleukin-12 (SinoBiologicals, Cat #CT011-H08H). After counting, cells were seeded at 100 000 cells/well in a 384 well titer plate and incubated at 37° C./5% CO2. Sixteen 4-fold serial dilutions of IL-18 analytes were prepared in aMEM medium—1 ng/ml IL-12 and were added to the NK-92 cells. […]
After 16-20 h incubation at 37° C./5% CO2, 5 μl of supernatant were carefully transferred to a 384 microwells OPTIPlate (Perkin Elmer; Cat #6007270) and Interferon-gamma (IFNγ) levels measured using the Human IFNγ AlphaLISA Assay Kit (Perkin Elmer, Cat #AL217C). […] AlphaLisa signal was then measured on an Enspire plate reader (Perkin Elmer) using 680 and 615 nm as excitation and emission wavelengths respectively. Half maximal effective concentration (EC50) was calculated based on a variable slope, four parameter analysis using GraphPad PRISM software.

[2] = test system: NK-92 cells; assay: IFNγ induction cellular assay in NK-92 cells (Example 4, used in Example 22C); type: cell-based, human; details: IFNg stimulation in NK92 cells
[3] = test system: NK-92 cells; assay: IL-18 binding protein inhibition cellular assay in NK-92 cells (Example 4, used in Example 22C); type: cell-based, human; details: inhibition by IL-18BP of IFNg stimulation in NK92 cells
Experimental: The NK cell line NK-92 derived from a patient with lymphoma (ATCC® CRL-2407™) is cultured in aMEM medium supplemented with 20% FCS-Glutamax, 25 µM B-mercaptoethanol, and 100 IU/mL of recombinant human IL-2.
On the day of experiment, cells are harvested and washed with aMEM medium without IL-2 and containing 1 ng/mL of recombinant human IL-12. After counting, the cells are seeded at 100,000 cells/well in a 384 well titer plate and incubated at 37° C./5% CO2. Sixteen 2-fold serial dilutions of Fc-fused human IL-18 binding protein isoform a (IL-18BPa) are prepared in aMEM medium. 1 ng/mL of IL-12 containing 2 nM of each IL-18 polypeptide variant is added to the NK-92 cells. The final IL-18 analyte concentration is 1 nM, and the final IL-18BPa concentration ranged from 566 nM to […].
After incubating the cells for 16-20 hr at 37° C./5% CO2, 5 μL of the supernatant is carefully transferred to a 384 microwell OptiPlate. IFNγ levels are measured using a human IFNγ AlphaLISA Assay Kit. Briefly, 10 μL of 2.5× AlphaLISA anti-IFNγ acceptor beads and biotinylated antibody anti-IFNγ mix are added to 5 μL of NK-92 supernatants. The mixtures are incubated for 1 hr at room temperature with shaking. Under subdued light, 2.5 μL of 2×SA donor beads are pipetted in each well and incubated for 30 min at room temperature with shaking. AlphaLISA signals are then measured on an EnSpire™ plate reader using 680 nm and 615 nm as excitation and emission wavelengths, respectively. Half maximal inhibitory concentrations (IC50) are calculated based on a variable slope and four parameter analysis using GraphPad PRISM software.
The experiments described in Example 4 for determination of IFNg stimulation in NK92 cells (and inhibition by IL-18 BP) were performed substantially as described on IL-18 polypeptides in order to assess their activities and their suitability for incorporation into immunocytokine compositions. It is expected that the IL-18 polypeptides provided below would behave analagously to C086 (SEQ ID NO: 30) when incorporated into an immunocytokine composition as those otherwise provided herein.

[4] = target: T1, human IL-18BP (Homo sapiens, UniProt O95998); assay: IL-18BP binding alphaLISA assay (Example 4, used in Example 22B); details: IL-18BP AlphaLISA
T1 construct: His
T1 sequence (O95998 31-194): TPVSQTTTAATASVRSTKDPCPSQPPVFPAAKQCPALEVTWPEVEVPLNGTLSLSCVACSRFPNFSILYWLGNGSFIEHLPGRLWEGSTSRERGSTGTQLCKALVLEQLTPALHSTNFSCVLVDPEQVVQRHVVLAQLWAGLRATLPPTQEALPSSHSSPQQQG

B1: SEQ ID NO: 60: IL-18 polypeptide: E6K, C38Q, K53A (protein)
chain: YFGKLKSKLSVIRNLNDQVLFIDQGNRPLFEDMTDSDQRDNAPRTIFIISMYADSQPRGMAVTISVKCEKISTLSCENKIISFKEMNPPDNIKDTKSDIIFFQRSVPGHDNKMQFESSSYEGYFLACEKERDLFKLILKKEDELGDRSIMFTVQNED
[1]
  EC50: 0.008 nM

B2: C168: IL-18 polypeptide: V11I, C38A, C76A, S105K, C127A (protein)
chain: B1 chain with K6E, V11I, Q38A, A53K, C76A, S105K, C127A
[2]
  EC50: 0.098 nM
[3]
  IC50: 0.176 nM
[4]
  Kd: 0.05 nM

B3: 35 (protein)
chain: B1 chain with Y1G, F2A, Q38C, M51G, D54A, S55A, T63A
[2]
  EC50: > 55 nM
[3]
  IC50: > 55 nM
[4]
  Kd: 969 nM

B4: C166: IL-18 polypeptide: V11I, C38A, S55T, C76A, C127A (protein)
chain: B1 chain with K6E, V11I, Q38A, A53K, S55T, C76A, C127A
[2]
  EC50: 0.098 nM
[3]
  IC50: 0.44 nM
[4]
  Kd: 0.02 nM

B5: 60 (protein)
chain: B1 chain
[2]
  EC50: 0.006 nM
[3]
  IC50: 780 nM
[4]
  Kd: 24.8 nM

B6: 59 (protein)
chain: B1 chain with Q38A
[2]
  EC50: 0.015 nM
[3]
  IC50: 654 nM
[4]
  Kd: 36 nM

B7: 62 (protein)
chain: B1 chain with Q38A, C127A
[2]
  EC50: 0.026 nM
[3]
  IC50: 284 nM
[4]
  Kd: 69.6 nM

B8: C167: IL-18 polypeptide: V11I, C38A, C76A, S105I, C127A (protein)
chain: B1 chain with K6E, V11I, Q38A, A53K, C76A, S105I, C127A
[2]
  EC50: 0.103 nM
[3]
  IC50: 0.809 nM
[4]
  Kd: 0.04 nM

B9: 34 (protein)
chain: B1 chain with Q38C, S55A
[2]
  EC50: 0.824 nM
[3]
  IC50: 229 nM
[4]
  Kd: > 1500 nM

B10: C165: IL-18 polypeptide: V11I, C38A, S55R, C76A, C127A (protein)
chain: B1 chain with K6E, V11I, Q38A, A53K, S55R, C76A, C127A
[2]
  EC50: 0.176 nM
[3]
  IC50: 0.885 nM
[4]
  Kd: 0.15 nM
